According to patent publication US20230227526A1 (published 2023):

Molecular target: T1, COL6A3 (peptide named COL6A3-642) peptide on HLA-A*02:01 (human)
T1 peptide: FLLDGSANV
Assay: multimer staining

B1: COL6A3-642 C4 TCR (TRAV1-2*01F-TRBV9*01F) (TCR, V domains shown)
Valpha: GQNIDQPTEMTATEGAIVQINCTYQTSGFNGLFWYQQHAGEAPTFLSYNVLDGLEEKGRFSSFLSRSKGYSYLLLKELQMKDSASYLCAVRADRGSTLGRLYFGRGTQLTVWP
Vbeta: DSGVTQTPKHLITATGQRVTLRCSPRSGDLSVYWYQQSLDQGLQFLIQYYNGEERAKGNILERFSAQQFPDLHSELNLSSLELGDSALYFCASSVDGGASGEQFFGPGTRLTVL
- binding result: recognises
